Results reported in patent US20050112121A1 (YALE UNIVERSITY, published 2005).

B1: Delta (Drosophila), expression construct pMTDl1 (ligand)
chain: QVHSSGSFELRLKYFSNDHGRDNEGRCCSGESDGATGKCLGSCKTRFRVCLKHYQATIDTTSQCTYGDVITPILGENSVNLTDAQRFQNKGFTNPIQFPFSFSWPGTFSLIVEAWHDTNNSGNARTNKLLIQRLLVQQVLEVSSEWKTNKSESQYTSLEYDFRVTCDLNYYGSGCAKFCRPRDDSFGHSTCSETGEIICLTGWQGDYCHIPKCAKGCEHGHCDKPNQCVCQLGWKGALCNECVLEPNCIHGTCNKPWTCICNEGWGGLYCNQDLNYCTNHRPCKNGGTCFNTGEGLYTCKCAPGYSGDDCENEIYSCDADVNPCQNGGTCIDEPHTKTGYKCHCANGWSGKMCEEKVLTCSDKPCHQGICRNVRPGLGSKGQGYQCECPIGYSGPNCDLQLDNCSPNPCINGGSCQPSGKCICPAGFSGTRCETNIDDCLGHQCENGGTCIDMVNQYRCQCVPGFHGTHCSSKVDLCLIRPCANGGTCLNLNNDYQCTCRAGFTGKDCSVDIDECSSGPCHNGGTCMNRVNSFECVCANGFRGKQCDEESYDSVTFDAHQYGATTQARADGLTNAQVVLIAVFSVAMPLVAVIAACVVFCMKRKRKRAQEKDDAEARKQNEQNAVATMHHNGSGVGVALASASLGGKTGSNSGLTFDGGNPNIIKNTWDKSVNNICASAAAAAAAAAAADECLMYGGYVASVADNNNANSDFCVAPLQRAKSQKQLNTDPTLMHRGSPAGSSAKGASGGGPGAAEGKRISVLGEGSYCSQRWPSLAAAGVAGACSSQLMAAASAAGSGAGTAQQQRSVVCGTPHM
notes: also called Delta+ cells; L49-6-7 stably transformed Delta expressing cell line
B2: Serrate (Drosophila), expression construct Ser-mtn (ligand, UniProt P18168 83-1407, looked up)
chain: AGNFELEILEISNTNSHLLNGYCCGMPAELRATKTIGCSPCTTAFRLCLKEYQTTEQGASISTGCSFGNATTKILGGSSFVLSDPGVGAIVLPFTFRWTKSFTLILQALDMYNTSYPDAERLIEETSYSGVILPSPEWKTLDHIGRNARITYRVRVQCAVTYYNTTCTTFCRPRDDQFGHYACGSEGQKLCLNGWQGVNCEEAICKAGCDPVHGKCDRPGECECRPGWRGPLCNECMVYPGCKHGSCNGSAWKCVCDTNWGGILCDQDLNFCGTHEPCKHGGTCENTAPDKYRCTCAEGLSGEQCEIVEHPCATRPCRNGGTCTLKTSNRTQAQVYRTSHGRSNMGRPVRRSSSMRSLDHLRPEGQALNGSSSPGLVSLGSLQLQQQLAPDFTCDCAAGWTGPTCEINIDECAGGPCEHGGTCIDLIGGFRCECPPEWHGDVCQVDVNECEAPHSAGIAANALLTTTATAIIGSNLSSTALLAALTSAVASTSLAIGPCINAKECRNQPGSFACICKEGWGGVTCAENLDDCVGQCRNGATCIDLVNDYRCACASGFKGRDCETDIDECATSPCRNGGECVDMVGKFNCICPLGYSGSLCEEAKENCTPSPCLEGHCLNTPEGYYCHCPPDRAGKHCEQLRPLCSQPPCNEGCFANVSLATSATTTTTTTTTATTTRKMAKPSGLPCSGHGSCEMSDVGTFCKCHVGHTGTFCEHNLNECSPNPCRNGGICLDGDGDFTCECMSGWTGKRCSERATGCYAGQCQNGGTCMPGAPDKALQPHCRCAPGWTGLFCAEAIDQCRGQPCHNGGTCESGAGWFRCVCAQGFSGPDCRINVNECSPQPCQGGATCIDGIGGYSCICPPGRHGLRCEILLSDPKSACQNASNTISPYTALNRSQNWLDIALTGRTEDDENCNACVCENGTSRCTNLWCGLPNCYKVDPLSKSSNLSGVCKQHEVCVPALSETCLSSPCNVRGDCRALEPSRRVAPPRLPAKSSCWPNQAVVNENCARLTILLALERVGKGASVEGLCSLVRVLLAAQLIKKPASTFGQDPGMLMVLCDLKTGTNDTVELTVSSSKLNDPQLPVAVGLLGELLSFRQLNGIQRRKELELQHAKLAALTSIVEVKLETARVADGSGHSLLIGVLCGVFIVLVGFSVFISLYWKQRLAYRTSSGMNLTPSLDALRHEEEKSNNLQNEENLRRYTNPLKGSTSSLRAATGMELSLNPAPELAASAASSSALHRSQPLFPPCDFERELDSSTGLKQAHKRSSQILLHKTQNSDMRKNTVGSLDSPRKDFGKRSINCKSMPPSSGDEGSDVLATTVMV
notes: whole, on cells

Key:
[1] = molecular target: Notch (Drosophila), full length Notch expression construct #1 pMtNMg (Drosophila) (UniProt P07207); assay: S2 cell aggregation, 24 hr, Notch+ cells alone
[2] = molecular target: Delta (Drosophila), expression construct pMTDl1 (Drosophila) (UniProt P10041); assay: S2 cell aggregation at 4 C, 1-2 hr, Notch+ cells pretreated with preimmune mouse sera (control; one of three experiments)
[3] = molecular target: Delta (Drosophila), expression construct pMTDl1 (Drosophila) (UniProt P10041); assay: S2 cell aggregation, 24 hr
[4] = molecular target: Delta (Drosophila), expression construct pMTDl1 (Drosophila) (UniProt P10041); assay: S2 cell aggregation, 48 hr
[5] = molecular target: T1, Notch (Drosophila), full length Notch expression construct #1 pMtNMg (Drosophila, UniProt P07207 53-2703); assay: S2 cell aggregation assay
T1 construct: whole, on cells; also called intact Notch; Notch+ cells
From the text: (§1) FIG. 2. Notch Expression Constructs and the Deletion Mapping of the Delta/Serrate Binding Domain. S2 cells in log phase growth were transiently transfected with the series of expression constructs shown; the drawings represent the predicted protein products of the various Notch deletion mutants created. All expression constructs were derived from construct #1 pMtNMg. Transiently transfected cells were mixed with Delta expressing cells from the stably transformed line L49-6-7 or with transiently transfected Serrate expressing cells, induced with CuSO₄, incubated under aggregation conditions and then scored for their ability to aggregate using specific antisera and immunofluorescence microscopy. Aggregates were defined as clusters of four or more cells containing both Notch and Delta/Serrate expressing cells. The values given for % Aggregation refer to the percentage of all Notch expressing cells found in such clusters either with Delta (Dl) (left column) or with Serrate (Ser) (right column). The various Notch deletion constructs are represented diagrammatically with splice lines indicating the ligation junctions. Each EGF repeat is denoted as a stippled rectangular box and numbers of the EGF repeats on either side of a ligation junction are noted. At the ligation junctions, partial EGF repeats produced by the various deletions are denoted by open boxes and closed brackets (for example see #23 ΔCla+EGF(10-12)). Constructs #3-13 represent the ClaI deletion series. As diagrammed, four of the ClaI sites, in repeats 7, 9, 17 and 26, break the repeat in the middle, immediately after the third cysteine (denoted by open box repeats; see FIG. 3 for further clarification), while the fifth and most 3′ site breaks neatly between EGF repeats 30 and 31 (denoted by closed box repeat 31; again see FIG. 3). In construct #15 split, EGF repeat 14 which carries the split point mutation, is drawn as a striped box. In construct #33 ΔCla+XEGF(10-13), the Xenopus Notch derived EGF repeats are distinguished from Drosophila repeats by a different pattern of shading. […]

[6] = molecular target: B2; assay: S2 cell aggregation assay
From the text: as §1

[7] = molecular target: the molecule itself; assay: S2 cell aggregation assay
From the text: as §1

T1 sequence (P07207 53-2703): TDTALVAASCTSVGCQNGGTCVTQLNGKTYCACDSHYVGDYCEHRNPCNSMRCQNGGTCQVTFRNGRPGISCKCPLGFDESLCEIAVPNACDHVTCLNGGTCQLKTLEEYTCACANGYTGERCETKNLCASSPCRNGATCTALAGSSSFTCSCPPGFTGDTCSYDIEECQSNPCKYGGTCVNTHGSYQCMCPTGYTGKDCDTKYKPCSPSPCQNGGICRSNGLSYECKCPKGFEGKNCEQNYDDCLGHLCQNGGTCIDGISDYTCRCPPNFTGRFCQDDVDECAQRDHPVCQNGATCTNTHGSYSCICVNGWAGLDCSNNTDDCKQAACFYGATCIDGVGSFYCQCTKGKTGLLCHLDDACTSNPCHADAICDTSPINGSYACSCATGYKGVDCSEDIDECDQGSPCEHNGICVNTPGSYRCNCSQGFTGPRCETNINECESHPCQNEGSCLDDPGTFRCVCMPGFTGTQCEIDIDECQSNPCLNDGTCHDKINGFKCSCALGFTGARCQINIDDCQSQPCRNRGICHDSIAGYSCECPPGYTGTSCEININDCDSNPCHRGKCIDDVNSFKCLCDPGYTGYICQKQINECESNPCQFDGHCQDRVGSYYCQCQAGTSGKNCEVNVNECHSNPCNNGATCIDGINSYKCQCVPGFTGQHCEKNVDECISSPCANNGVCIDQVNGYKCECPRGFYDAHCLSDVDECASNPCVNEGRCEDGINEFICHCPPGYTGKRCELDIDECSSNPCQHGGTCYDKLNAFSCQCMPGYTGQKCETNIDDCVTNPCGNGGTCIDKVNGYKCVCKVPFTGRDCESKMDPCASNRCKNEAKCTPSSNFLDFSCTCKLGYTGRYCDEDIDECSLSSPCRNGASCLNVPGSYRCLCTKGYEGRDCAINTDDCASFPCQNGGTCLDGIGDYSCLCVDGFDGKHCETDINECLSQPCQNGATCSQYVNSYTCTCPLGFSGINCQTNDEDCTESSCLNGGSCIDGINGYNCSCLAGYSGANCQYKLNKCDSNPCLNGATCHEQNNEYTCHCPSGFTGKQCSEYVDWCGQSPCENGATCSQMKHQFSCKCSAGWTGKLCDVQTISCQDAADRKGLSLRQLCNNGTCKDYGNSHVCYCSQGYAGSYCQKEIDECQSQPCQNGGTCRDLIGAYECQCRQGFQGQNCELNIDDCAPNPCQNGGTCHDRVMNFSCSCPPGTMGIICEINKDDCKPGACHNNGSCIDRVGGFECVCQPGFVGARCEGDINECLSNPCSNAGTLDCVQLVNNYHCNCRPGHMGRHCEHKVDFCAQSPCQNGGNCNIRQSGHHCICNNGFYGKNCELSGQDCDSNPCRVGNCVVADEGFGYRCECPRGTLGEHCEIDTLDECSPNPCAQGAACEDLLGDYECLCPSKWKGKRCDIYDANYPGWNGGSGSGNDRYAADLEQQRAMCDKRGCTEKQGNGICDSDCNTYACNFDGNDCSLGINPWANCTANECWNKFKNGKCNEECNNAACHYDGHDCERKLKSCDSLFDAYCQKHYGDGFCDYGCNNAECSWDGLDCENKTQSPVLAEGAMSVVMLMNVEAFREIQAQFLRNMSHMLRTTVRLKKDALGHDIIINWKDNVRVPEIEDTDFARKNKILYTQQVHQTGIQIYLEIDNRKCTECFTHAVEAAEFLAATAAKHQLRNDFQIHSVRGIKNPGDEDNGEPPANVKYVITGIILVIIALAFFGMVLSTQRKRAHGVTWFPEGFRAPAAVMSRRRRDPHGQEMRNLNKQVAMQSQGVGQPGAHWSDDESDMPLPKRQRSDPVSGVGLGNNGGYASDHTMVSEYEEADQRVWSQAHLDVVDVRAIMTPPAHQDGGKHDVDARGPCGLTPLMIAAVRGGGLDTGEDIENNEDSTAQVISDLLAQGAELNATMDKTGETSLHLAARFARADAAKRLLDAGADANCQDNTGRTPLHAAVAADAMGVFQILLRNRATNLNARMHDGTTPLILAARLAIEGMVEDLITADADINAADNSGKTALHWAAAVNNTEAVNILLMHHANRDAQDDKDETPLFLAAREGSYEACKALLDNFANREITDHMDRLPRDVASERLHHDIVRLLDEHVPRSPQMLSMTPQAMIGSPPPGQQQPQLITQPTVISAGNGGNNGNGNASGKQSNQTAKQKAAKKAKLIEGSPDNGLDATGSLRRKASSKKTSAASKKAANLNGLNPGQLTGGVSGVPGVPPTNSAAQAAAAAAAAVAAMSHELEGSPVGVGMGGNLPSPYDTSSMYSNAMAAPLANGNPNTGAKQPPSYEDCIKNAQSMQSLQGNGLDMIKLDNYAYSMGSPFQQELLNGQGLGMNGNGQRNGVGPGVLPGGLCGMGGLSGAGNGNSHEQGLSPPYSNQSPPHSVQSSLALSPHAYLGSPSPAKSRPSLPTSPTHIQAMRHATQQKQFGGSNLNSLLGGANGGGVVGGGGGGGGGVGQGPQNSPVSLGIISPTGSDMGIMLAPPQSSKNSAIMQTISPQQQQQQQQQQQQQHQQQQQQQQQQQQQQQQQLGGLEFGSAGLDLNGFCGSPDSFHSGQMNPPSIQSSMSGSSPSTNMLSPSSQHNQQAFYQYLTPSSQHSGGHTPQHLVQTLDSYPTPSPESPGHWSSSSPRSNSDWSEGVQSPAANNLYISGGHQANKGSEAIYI

Notch (Drosophila), full length Notch expression construct #1 pMtNMg, P07207 53-2703
fraction of expressing cells found in clusters of four or more stained cells [1]: -0 to 5% | % of Notch+ cells in Notch+-Delta+ cell aggregates [2]: 23% | fraction of expressing cells found in clusters of four or more stained cells [3]: 32 to 54% | degree of aggregation [4]: 63 to 71%

B1
binding result [5]: binds | binding result [6]: no binding

B2
binding result [7]: no binding
